Assay results: US20220025060A1 (JIANGSU HENGRUI MEDICINE, published 2022)

Target: T1, His-tagged human CD40 (h-CD40-his) recombinant protein (human, UniProt P25942 21-193)
T1 construct: range 21-193; Commercial reagent from Acrobiosystems; also called human CD40-his; not shown: His tag
Test: Biacore SPR
Source text: According to the method described in the instruction available from Human Anti-capture Kit (Cat.# BR-1008-39, GE), human anti-capture antibody was covalently coupled to biosensing chip CM5 of the Biacore instrument (Biacore X100, GE), a certain amount of chimeric or humanized antibodies to be tested was affinity-captured, and then a series of concentration gradients of CD40 antigen (CD40 antigen purchased from Acrobiosystems) flowed through the surface of the chip. Biacore instrument (Biacore X100, GE) was used to detect the reaction signal in real-time, thus to obtain the association and dissociation curves. After each cycle of dissociation was completed, the biochip was washed and regenerated with a regeneration solution provided by the Human Anti-capture Kit. The amino coupling kit used in the test was purchased from GE (Cat. # BR-1000-50, GE), and HBS-EP+10× buffer solution (Cat. # BR-1006-69, GE) was diluted to 1×(pH 7.4) with double distilled water.
The data obtained from the test was fitted against a (1:1) Binding model using BiacoreX100 evaluation software2.0 GE, and the affinity value was obtained, as shown in Table 10 and Table 11.

T1 sequence (P25942 21-193 limits assumed): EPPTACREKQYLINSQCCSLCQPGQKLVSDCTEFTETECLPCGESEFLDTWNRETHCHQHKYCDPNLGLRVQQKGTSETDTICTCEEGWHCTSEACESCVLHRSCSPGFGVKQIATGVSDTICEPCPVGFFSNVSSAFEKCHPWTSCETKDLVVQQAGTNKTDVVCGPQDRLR

fold affinity against the Alligator control: ≥ 10 times
fold affinity against the Pfizer Control: ≥ 4 times
B1: humanized antibody hu9E5 (H1c heavy chain, L1a light chain) (antibody, human IgG1, kappa, V domains shown)
VH: QVQLVQSGAEVKKPGASVKVSCKASGYILTTYWITWVRQAPGQGLEWMGDIHPGSGSTKYNEKFKSRVTLTVDTSISTAYMELSRLRSEDTAVYYCARRDYWGQGTTVTVSS
VL: DIVMTQSPLSLPVTPGEPASISCRSSQNIVNSQGNTYLEWYLQKPGQSPQLLIYKVTNRFSGVPDRFSGSGSGTDFTLKISRVEAEDVGVYYCFQASLVPWTFGGGTKVEIKR
notes: also called Hu9E5-25
